Measurements from article PMC3154026.

Biological target: TamL, FAD-dependent oxidase (flavoprotein) of the tirandamycin biosynthetic gene cluster (Streptomyces sp. 307-9)
Assay: crystal structure

TamL, FAD-dependent oxidase (flavoprotein) of the tirandamycin biosynthetic gene cluster (enzyme)
stoichiometry N: 2
